Test results published in the NTF2 design screens of Basanta et al. (2020).

Assay: protease stability score; higher = more stable; yeast display proteolysis, trypsin and chymotrypsin;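 note: relative to predicted unfolded state with 0 unfolded-like and 1 meaning tenfold more protease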

Sequence | protease stability score
KEREELLKTAADLMYHIWHTGDFEKLFKNVDPHVKINVGDKTYVGREQMHKIFKELKERLGFDVSSLEHRHLDMQGDFIFNELHVRLHQGDFEIQSWIHVIIYKVNGKWVVHEIKLHWD | 1.6
KESEEDARKFWEKMVEDNRTGDWDSFEKLVDPHVKMLFNGREYHGRDELLDLFRHIRFKDHEIHDMKVIGNKVRMDTRVHLNVNGREISVDTHLVVEKINGRWVLHSVLFH | 1.62
KHEEDEWKRMIDIVLHMLKTGNFELLERLADPHARSHIDGVRIHGREKFVEILFEVWHFYKNLTISINHIDVFNGVIVIHGRLDINGRQVEVHIVVTKINGKWFLESHSEIFH | 0.572
LEDEEMLEEVDKRLVHAFLTGDFNTIERMLDPDTKVRINGRESIGRENVAKVLHEERRHMRLDIIEIRRIRLVGEFIHSDTRLDININGRRIKFTFRIIVLKINGQWIVESLEID | 2.06
LEEEEEAKTMIEHHFDNFRTGDEDLIHKLADPHVRVLYNGKILHGREKLVEMIHKLVEKMGVDHLEYRHRDMKIWDGQVEVHGERIIRQGDKTYRFDVILFVLKVDGRWVIKEVRVQ | 1.47
LEEEEETKEMNDKMRHVMETGDEDSFRKLADPHVRVDINGREFHGMDNAAEIMSHLRIHKFHVHDTRNINGKVQVESRLTRIIDGKKQHVRTEWIIVKIDGQWIFREWIVK | 0.58
LEEEEIARELLKRILDMLFTGDEEVLSELLDPNVRVDFNGVEIHGREHVREWMHHLRFRHLHLRDFRVQGDKLHLDTETRGEIDGQEVRIETRLIARKVDGRWILKSREFV | 1.53
LEEKDEVHHIVDRLFKVLMTGDFEILRHLLDPDDRLKIDINGRQIDLHGREEVVHWVIHELRELRIELRVKRVHHTENHYVADTRLHIRQGDKEFVHETEWRILIIDGKNKEWRIIVH | 1.38
LEFEEHLHRWVNFYLNVHRTGDEEHIEKLADPDMRIEVGDKELHGRERAYEFWRRYLEEARLHDMKIRSVELVGDKIILDTEIHSIVGDKHIRERLEIILTKINGRWMLKSMRVQ | 1.45
LESEEDLREAIRILIEDLRTGDEDSLHNLLDPNVRIDVNGVKLHGMEWVSHTIRHLGVKHTYVINRRIKIQGNKVDIDGEFNLRYDGKEERRRITLHVQKIDGVWVIEEITIR | 0.971
NDDQKELEHIMKLLSRALETGDEEKLRELFDPHTRIHINGVTRIGWEHMKHHFEDLGLSNFHFHLRVRHFDVQGDKARVEGELVVNFNGKETSHDVEWRLEKVNGRWIVKSIIVG | 2.27
NDEEQVAHKFFEKLMHALLTGDEERLKELHDPDVRVDYGNFKLVGREKMVEFWHRFLEEIRLRNTHIETYHIFDGRLEIHSRIHIEVDGKIRIMEVYLEVRKIDGKWRLTHVEFR | 1.68
NDIEQIVREVLELIYHAIATGDWEHIYKNADPNVKYEQGDKEFHGREILSEMIVHIRLRDLELNRLHIVGDKVHIHGHFHMDINGRERLVKTEYIIRKVDGQWRLESLIIR | 1.23
NDLEERTKKAAEELREMHKTGDEELWLKNMDPNVRLEIIIGDKLLIFHGREKWREWFHKYKNARHEDNDEHVQGDKTRINVHIVFNGRRVDVEITLRVIDGRVHSEHINII | 1.45
NDLERDAEHMLKLLIEAHLTGNEDIFEEFMDPNTRLVVGDKDNHGREFAEDYFKEWRVKHVRLKHYRSIGNYVEFDTETNVHVNGRDIRTETKITIVKIDGRWLLKVLIFG | 1.72
NEDDHIMEELTRIFIQNLRTGNEEEWAKYADPDTRLDFNGVDIIGRESILHWLKHMLTELRFTKIIFHHINAVNGRIHLDVEQHVEVGDKSQTIRSEIHIRVVNGVIKREYYRYK | 0.092
NEDDKHAKHLLDLLIRTFITGDEHTLMNLLDPHTRYHQGEKELHGMEMLLHVERHHGATVHHFHVKSVRVIGDKIQFHVHVDHTIDGKRIRTDIDLWMEKVDGRWIVREIRIH | 0.815
NEDEDKMKEWIETLHKSLETGDEKTLSKLFDPRVQYDIGDKKYHGWRHYLELILRIDHERREIHHVEVVNGRVEIDVRVHIHINGQDYEKKTILHVEKIDGKWLNKKVQIV | 1.16
NEDEDWLRKVLHLLLHAAETGDEEILLHLLDPNARFIQGDKFKVGMDILETWIRKIKNLRIHDFELKDMRVYNGRIEVDGHLDRIINGQRERTDIILFLLKVDGRWYFEEIRIS | 2.09
NEDEEAHHKLIKEYSRLVDTGDWRSLRRYLDPDYRLRVDGVDIVGRDELHRILEQMLDRVDHLHLNIERHRIQGDFLISDVKHHYEFNGKHVERKVIIYIWKFDGRWIMRYTEVL | 1.02
NEDEEEARRWLEFFIKLYETGDEHMLEKMIDPDTRSYIDGKEFVGREEIRKLLRHLRIEHIHVKRFRAVNGKIDFDTHIVGEFNGRRKNTDVHIRATKIDGQWYLHEVDWK | 1.64
NEDEEHFKKWFEKYLRSLRTGDEENTRKLFDPHVRIEFENHELHGWENAVRFFRELHHRADVIHLELHDYTIVGDYVYIDVIVHLIYNGREFRHDVKIDASKIDGQWRIESLSIK | 1.64
NEDEEIVRERFEEFLDMMFTGDWTSLEKLLDPHYRLDIGDKHHHGREEFIEFVRKIKNLRIDIKRVSVIVIDGRAINHVDGVLHFNGKTEKVHIIVVAKKIDGRWIVERVTIETH | 2.08
NEDEEIWRKAHEFMIHAMKTGDEDVEKSLFDPHTRFEQGDKELHGREMIEHLLRLLRERFPNVQIRRMEIQHWDHFNGVLIEFGELRVDVNGRTVSLRIIIYAEKINGQWHVKRVEFD | 1.52
NEDEEKAKRFVKTYVHSLVTGDWKLWSEMADPNMILIYGDKTFIGREHFEEFFRRHIEELRFDSFHVDHVEIQGDKAELESRVSVIINGVERELETNMFLHKVDGRWLLTKFEVH | 2.08

Sequence | protease stability score
NEDEEMIKTAIELLLRTWKTGDEHSLTELLDPHVRVHINGVDLHGRHAIHWLSRHMRFEEIRVDHFEIVNGRVHLETKVRIHYGDKSDTVESHVISLKVDGKWKTQRVQYH | 0.954
NEDEENMKKLLEDFLESLLTGDFDKLTRLADPHARIVQGDKELHGRDEIHEFWKRTMEHIRITHSYVREIDIINGRLHTDIHWDLQVGDKRYSHRVELILLKIDGKWVLHEVEFR | 1.27
NEDEESAERAVHLLRELIYTGDEDRMLKYADPNVKIVFNGVEMHGMDTFLRVFHRIKNLTIRRIHIDHIHLQGDKIELNVRMDTEFNGRHHDDSIHIRTLKVDGVWINHRTEYV | 1.04
NEDEESIRRAVEHWSKLILTGDESLLRQMADPNVRIQVGDKRIIGMDSLVKLMEDLGWEMEIRTKIRHTEIINGKMHTRTQLDIHFRQGDKKVDIHRDTEIVIEKVDGRWHIHSIRIE | 0.752
NEDEEVERKWLEFIRHALHTGDERILHELLDPHAQLIYGDKHIIGREEMTRQFIELGVDHMEDKRVHHQGDKIHQDGTEHVNGKERKVRFVVAKVNGRWIWERMHVI | 1.03
NEDEEWIHKFWETLRKNIETGNEEEIEKLFDPNTRVEIGDKIIHGRRFIEHLKERADHVEEVHFQHKHIEIQGDKVQVHGELDHDIRIGDKRHRLRLDIIIILKKYNGRWHVHSFIIT | 1.2
NEDEEYVRLAHEILVETLRTGDEHITKRLADPHVRIDVGDKELHGWEDWLELLTHEARHLRTEIRVRNFDSQGDFIRVEVIIIIVVNGKRIEREVHYFSLKVDGRWLLTHVEIK | 0.242
NEDEHRARFIFRILTKAILTGDEDFLHRFADPNVRIHVNGVNLIGMEEWLRHLKELRIHFITSHVREIDKIDGVMIVHGEFVIDGEVNGKRDTWHTEIHLVITKVNGRWILHELHTR | 2.58
NEDEKILEEAARLLFKALHTGDETTMLRLLDPNVRLHINGRDLIGREEMDRWWQELGLERISVHLDHLETHYIGNKIEIYIRGTVEFNGVRREIDVHNHALKVNGRWELKNVEIRHR | 0.893
NEDEKLAEDAIQEYRHSVKTGDENFLKHLADPDVRMDYNGREYHGREEWEKFLRNILRHLRPKDFRIKHFDYYGDYMHFEGLHVGQINGKETHLHTEIIFLKINGRWHLRSIRIE | 0.401
NEDEREFRIFLELFILAMRTGDETTFKKLLDPDVKFRINGKEYHGWEEVWHVLEEIRIHDIKLTDMERVGDKLHLITRVEGEFDGRRHEIDTRLHVRKIDGRWLLRTVEIS | 2.13
NEDERETELFLRLFRRALLTGDWRAIEDLMDPNVMIHVNGREFHGREQYYKIVMNELTHWRLHHTKIDDIRLYDGVLRVQLRLQGEINGREDFLHLHVIIEKIDGKWIFRSVEIR | 1.91
NEDERLIKEFWRLLQEALKTGNWEMIAELIDPHVRIDIGDKQIHGREEFIKLVDHIRFDDVKTELKTVHVFDGRVEVRGHLTVHKTFNGQKIDERTDVNLDIEKINGVWYMTYVRIE | 2.06
NEDHDVLNDLMTDHVHAVLTGDFRTLIHNIDPHTRVDINGVHFHGREEAVHLFEDLANRVPGVKLDVEEWRTYGDKLRSNVRWHFDGRTIDIHLVFLKINGKWLLESVKIN | 1.9
NEEDEFMEVAVELMERTLKTGDERLLSELVDPNARIEFNGREWHGRKFLETLWRELTKKFPNMKVMFKIEYINSFEGHIEIEGILESNFDGRVESRRVHYNVSKINGRWIIEEIEIQ | 1.35
NEEEDINHHIVELFFHLLHTGDWEELEKLADPHARLEINGRRFHGRENVVTQLWELLHRIDHVEIRDLRVQGDKVHVDTRLRIGDKEKKTEWDIVVVNGKIKRSRVRVH | 2.02
NEEEEDMEHATKEHMELWRTGDEKRITELADPNVRVHVGEKEYHGREKLSEHIMRLGFDHVELTHFDVQGEKVISHIRVRFNGRDIEFLLIVLKVDGRWYEEQVNIRVS | 0.66
NEEEEEIKTLSEEILRAWMTGDFDHLRDMMDPNTKLDINGKEVHGREILINLLRKIMEDLGVKHIHIRHKEHQGNWTHLDERQIVGDKRINVHYIWVVVDGRIHSIRIEMR | 1.16
NEEEEESKFANELWEETVKTGDERLNRSLADPNTRFHINGVDLHGWESMDETARRYKNITVRLHDMRTYNGRVHLDFEMRVGEFTTKVIIIARKFDGRWILKSIIVH | 1.2
NEEEEESKWAYEEMIKVVKTGDEERLKELADPHTRVHMLVNGRLHNLHGREFLVLAWRLLGFDHLELKRMHVEVVNGRVHINLHGHVEINGRTHTLHIHIDAEKVDGRWIVRRVEIRSE | 1.5
NEEEEESRRAFHLLVELLRTGDEESFTKLADPHMRIIVDGREIHGREEMRRFMEEHWERFPNMKVRIEHFRVQGDKVTIHTVVHIGDKEIEVHIHARKVNGRWIMKELIIVTR | 0.552
NEEEEHIFELWELFLKASHTGDEDSLKEFADPNTRQIVDGQEIHGREKFTEHLSWRAKELRLESVHIRRLHIIDGRIHVDGLIRGRINGREIEIETEVISIKVNGKWILKEMNFK | 1.28
NEEEELLHRLAKRFIELFLTGDWEVMEKLFDPHVKIDVNGRESHGREQVWHLLMHLLHELRIHHILIRSFDVFDGRAHSSVEVNGEFNGKRDLTEAEVVIVSVDGKMKSVSIKLR | 1.23
NEEEETARHAIEEFVRVLMTGDWRTLERLLDPNYRIYQGDKTYIGMEHFLELWVHILDRIKNLRLEIHSYEIQGEKVHIHTILNYDGRDIEYVIIQIKINGRWLLHSLHFL | 1.24
NEEEHELELAYRWYEESILTGDEDELTHLLDPHVRLQYGDKEFHGREIVLHFFHKHWREMGAKYIEVHSISLYGDKIVFDSTLHINGRTHRVHVTSRKVDGRWRIRSMRIN | 1.63
